US20120207770A1 (NANYANG TECHNOLOGICAL UNIVERSITY, published 2012)

How the values were obtained:
[1] = target: T1, human integrin β5 (enriched membrane protein extract of transfected HEK293T cells) (human, UniProt P18084 24-799, limits assumed); assay: SPR, integrin over immobilized ANGPTL4, global fit to Langmuir 1:1 model
T1 construct: Membrane extract enriched on a sucrose step gradient before SPR; also called integrins B5; integrin 5
Procedure: Purifided fibrinogen-like fragment of ANGPTL4 (cANGPTL4) was immobilized onto ProteOn GLC chip by amine coupling as recommended by the manufacturer (Bio-Rad). Different concentrations of integrins were introduced into the GLC chip at a flow rate of 25 μl/min for […] with running buffer (50 mM Tris, pH8.0, 100 mMNaC1). […] Global fitting of the data to a Languir 1:1 model was used to determine the association (Kₒₙ) dissociation (Koff) and affinity constant (KD) using scrubber2 (Biologic Software Pty Ltd). […] The affinity constants of the 6 mAbs for ANGPTL4 were determined using the one shot Kinetics protocol as described by manufacturer (Bio-Rad).
Purified fibrinogen-like fragment of ANGPTL4 (cANGPTL4) was immobilized onto ProteOn GLC chip by amine coupling, as recommended by the manufacturer (Bio-Rad). Different concentrations of integrins were introduced into the GLC chip at a flow rate of 25 μl/min for […] with running buffer (50 mM Tris, pH 8.0, 100 mM NaCl). […] Global fitting of the data to a Langmuir 1:1 model was used to determine the association (kₒₙ), dissociation (koff) and affinity constant (KD) using Scrubber2 (BioLogic Software Pte Ltd). […] The affinity constants of the 6 mAbs for ANGPTL4 were determined using the One-Shot Kinetics protocol as described by manufacturer (Bio-Rad).

[2] = target: T2, human integrin β1 (enriched membrane protein extract of transfected HEK293T cells) (human, UniProt P05556 21-798, limits assumed); assay: SPR, integrin over immobilized ANGPTL4 on a GLC chip, global fit to Langmuir 1:1 model
T2 construct: Membrane extract enriched on a sucrose step gradient before SPR; also called integrins B1
Procedure: Immunoprecipitates were probed with anti-Src for normalization. Activated Src, Na⁺/H⁻ exchanger 1 and catalase were assessed using cognate antibodies. Representative pictures from three experiments. (h) Intracellular ROS of A-5RT3CTRL and A-5RT3ANGPTL4 evaluated by 5-(and 6-)-chloromethyl-2′,7′-dichlorodihydro-fluorescein diacetate acetyl ester. Data are normalized to total protein content. (i) Activities of caspases in A-5RT3ANGPTL4 after 2 h suspension. Values (mean±S.D.) represent a fold change above A-5RT3CTRL (n=3). *:p<0.05, **:p<0.01.
Purifided fibrinogen-like fragment of ANGPTL4 (cANGPTL4) was immobilized onto ProteOn GLC chip by amine coupling as recommended by the manufacturer (Bio-Rad). Different concentrations of integrins were introduced into the GLC chip at a flow rate of 25 μl/min for […] with running buffer (50 mM Tris, pH8.0, 100 mMNaC1). […] The affinity constants of the 6 mAbs for ANGPTL4 were determined using the one shot Kinetics protocol as described by manufacturer (Bio-Rad).
Purified fibrinogen-like fragment of ANGPTL4 (cANGPTL4) was immobilized onto ProteOn GLC chip by amine coupling, as recommended by the manufacturer (Bio-Rad). […] The affinity constants of the 6 mAbs for ANGPTL4 were determined using the One-Shot Kinetics protocol as described by manufacturer (Bio-Rad).

T2 sequence (P05556 21-798 limits assumed): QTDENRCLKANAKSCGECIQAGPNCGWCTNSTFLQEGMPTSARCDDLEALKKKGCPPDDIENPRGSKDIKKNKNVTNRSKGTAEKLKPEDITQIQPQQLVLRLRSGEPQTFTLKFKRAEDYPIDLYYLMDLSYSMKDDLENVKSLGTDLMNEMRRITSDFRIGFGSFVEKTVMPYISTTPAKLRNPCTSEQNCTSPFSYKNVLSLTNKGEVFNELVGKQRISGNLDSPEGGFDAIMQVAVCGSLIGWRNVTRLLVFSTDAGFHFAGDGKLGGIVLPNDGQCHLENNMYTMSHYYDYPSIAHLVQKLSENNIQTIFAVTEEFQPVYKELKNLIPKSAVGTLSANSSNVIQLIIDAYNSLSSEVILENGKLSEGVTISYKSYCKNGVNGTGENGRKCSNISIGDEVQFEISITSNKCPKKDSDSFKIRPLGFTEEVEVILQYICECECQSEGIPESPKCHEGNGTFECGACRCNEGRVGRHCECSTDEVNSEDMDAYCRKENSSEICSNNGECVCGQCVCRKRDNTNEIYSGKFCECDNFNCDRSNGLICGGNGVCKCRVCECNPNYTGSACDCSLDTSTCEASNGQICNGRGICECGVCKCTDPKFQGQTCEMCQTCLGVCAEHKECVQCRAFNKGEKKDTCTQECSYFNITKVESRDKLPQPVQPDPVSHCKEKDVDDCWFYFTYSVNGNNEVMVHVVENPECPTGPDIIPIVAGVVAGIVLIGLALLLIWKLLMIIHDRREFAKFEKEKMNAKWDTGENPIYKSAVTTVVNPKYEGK
T1 sequence (P18084 24-799 limits assumed): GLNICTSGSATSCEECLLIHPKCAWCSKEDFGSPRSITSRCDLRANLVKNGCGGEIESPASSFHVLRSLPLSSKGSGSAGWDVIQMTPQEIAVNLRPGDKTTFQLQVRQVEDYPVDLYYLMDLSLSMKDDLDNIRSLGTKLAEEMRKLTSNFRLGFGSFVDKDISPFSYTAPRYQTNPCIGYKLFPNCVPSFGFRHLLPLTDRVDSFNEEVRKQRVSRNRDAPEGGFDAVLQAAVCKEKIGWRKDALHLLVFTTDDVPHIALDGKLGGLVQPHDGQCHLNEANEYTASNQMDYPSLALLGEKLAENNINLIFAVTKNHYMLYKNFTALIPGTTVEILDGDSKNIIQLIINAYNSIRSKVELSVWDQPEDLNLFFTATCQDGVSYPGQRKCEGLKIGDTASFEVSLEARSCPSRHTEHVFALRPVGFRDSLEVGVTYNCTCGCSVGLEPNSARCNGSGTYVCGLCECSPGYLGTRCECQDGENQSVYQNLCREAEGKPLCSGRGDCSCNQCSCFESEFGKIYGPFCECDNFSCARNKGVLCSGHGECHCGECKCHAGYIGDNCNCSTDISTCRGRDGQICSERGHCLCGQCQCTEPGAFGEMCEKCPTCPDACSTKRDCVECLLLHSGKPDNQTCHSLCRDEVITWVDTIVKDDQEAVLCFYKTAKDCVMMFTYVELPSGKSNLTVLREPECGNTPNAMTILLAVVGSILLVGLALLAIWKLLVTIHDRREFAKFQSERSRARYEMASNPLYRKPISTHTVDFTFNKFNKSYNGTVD

- Kd [1]: ~100 nM
- Kd [2]: ~100 nM
B1: recombinant C-terminal fibrinogen-like fragment of human ANGPTL4 (cANGPTL4, a.a. 186-406) (ligand, UniProt Q9BY76 186-406, looked up)
chain: RDCQELFQVGERQSGLFEIQPQGSPPFLVNCKMTSDGGWTVIQRRHDGSVDFNRPWEAYKAGFGDPHGEFWLGLEKVHSITGDRNSRLAVQLRDWDGNAELLQFSVHLGGEDTAYSLQLTAPVAGQLGATTVPPSGLSVPFSTWDQDHDLRRDKNCAKSLSGGWWFGTCSHSNLNGQYFRSIPQQRQKLKKGIFWKTWRGRYYPLQATTMLIQPMAAEAAS
notes: range 186-406; also called immobilized-ANGPTL4; fibrinogen-like fragment of ANGPTL4; not shown: N-terminal histidine tag
